Laboratory results as given in EP1444995A1.

Biological target: endogenous Translokin of mouse NIH-3T3 cells (mouse) (UniProt Q8CEE0)
Assay: cell-based or functional assay

UniProt Q8CEE0, sequence (Q8CEE0 whole entry): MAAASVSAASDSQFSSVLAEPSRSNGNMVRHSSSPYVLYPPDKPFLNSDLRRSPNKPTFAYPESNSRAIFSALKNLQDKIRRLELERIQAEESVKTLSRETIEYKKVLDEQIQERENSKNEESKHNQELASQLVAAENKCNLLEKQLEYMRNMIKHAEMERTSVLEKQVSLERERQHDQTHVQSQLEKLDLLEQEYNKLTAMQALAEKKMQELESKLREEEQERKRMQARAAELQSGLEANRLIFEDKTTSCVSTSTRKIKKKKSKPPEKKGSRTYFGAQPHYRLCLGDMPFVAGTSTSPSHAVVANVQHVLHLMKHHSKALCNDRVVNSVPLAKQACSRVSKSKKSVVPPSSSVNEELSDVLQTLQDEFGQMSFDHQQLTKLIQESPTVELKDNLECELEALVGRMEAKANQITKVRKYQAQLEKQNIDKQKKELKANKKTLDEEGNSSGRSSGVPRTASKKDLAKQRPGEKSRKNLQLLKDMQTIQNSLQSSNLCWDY

- FGF-2 nuclear accumulation in NIH-3T3 cells after Translokin siRNA: 80%
Substance: HA-tagged FGF-2 (18 kDa) (ligand)
